Molecular target: T1, cMyc-tagged Smurf2 (C716G), ligase inactive point mutant (UniProt Q9HAU4 1-748, limits assumed)
T1 construct: whole, on cells; Expressed from pCAGGS in HEK293T cells; co-immunoprecipitation from lysates; also called cMyc-Smurf2 (C716G); c-myc-Smurf2(C716G); not shown: cMyc tag
Assay: co-immunoprecipitation of TNF-R2 with utr-1 from HEK293T lysates without cotransfected TRAF2, anti-cMyc Western blot

T1 sequence (Q9HAU4 whole entry C716G): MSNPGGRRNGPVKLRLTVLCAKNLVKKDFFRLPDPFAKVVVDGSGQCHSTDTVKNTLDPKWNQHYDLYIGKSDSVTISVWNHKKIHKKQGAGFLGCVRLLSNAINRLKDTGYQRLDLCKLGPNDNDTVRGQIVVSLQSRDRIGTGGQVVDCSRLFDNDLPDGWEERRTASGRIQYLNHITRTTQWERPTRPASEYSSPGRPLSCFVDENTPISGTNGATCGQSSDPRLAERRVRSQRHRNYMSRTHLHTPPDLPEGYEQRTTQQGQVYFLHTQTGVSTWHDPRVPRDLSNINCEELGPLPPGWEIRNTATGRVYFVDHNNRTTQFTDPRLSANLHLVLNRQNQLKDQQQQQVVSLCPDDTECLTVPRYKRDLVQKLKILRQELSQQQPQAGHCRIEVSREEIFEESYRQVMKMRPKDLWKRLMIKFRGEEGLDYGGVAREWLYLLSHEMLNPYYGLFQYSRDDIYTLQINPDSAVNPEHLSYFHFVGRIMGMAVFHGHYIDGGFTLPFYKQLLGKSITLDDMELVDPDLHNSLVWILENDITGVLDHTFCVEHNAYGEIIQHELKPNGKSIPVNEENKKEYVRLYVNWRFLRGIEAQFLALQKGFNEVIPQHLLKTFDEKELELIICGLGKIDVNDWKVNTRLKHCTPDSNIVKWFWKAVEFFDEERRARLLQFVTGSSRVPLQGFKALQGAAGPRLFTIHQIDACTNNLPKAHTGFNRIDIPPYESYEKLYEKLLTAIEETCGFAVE

B1: TNF receptor 2 (TNF-R2) wild type, pcDNAI-hTNF-R2 (receptor, UniProt P20333 23-461, looked up)
chain: LPAQVAFTPYAPEPGSTCRLREYYDQTAQMCCSKCSPGQHAKVFCTKTSDTVCDSCEDSTYTQLWNWVPECLSCGSRCSSDQVETQACTREQNRICTCRPGWYCALSKQEGCRLCAPLRKCRPGFGVARPGTETSDVVCKPCAPGTFSNTTSSTDICRPHQICNVVAIPGNASMDAVCTSTSPTRSMAPGAVHLPQPVSTRSQHTQPTPEPSTAPSTSFLLPMGPSPPAEGSTGDFALPVGLIVGVTALGLLIIGVVNCVIMTQVKKKPLCLQREAKVPHLPADKARGTQGPEQQHLLITAPSSSSSSLESSASALDRRAPTRNQPQAPGVEASGAGEARASTGSSDSSPGGHGTQVNVTCIVNVCSSSDHSSQCSSQASSTMGDTDSSPSESPKDEQVPFSKEECAFRSQLETPETLLGSTEEKPLPLGVPDAGMKPS
notes: also called TNF-R2 WT
Does B1 bind?
Result: no binding

Reference: patent publication US20060134737A1 (VLAAMS INTERUNIVERSITAIR INSTITUUT VOOR BIOTECHNOLOGIE VZW, published 2006)
